# The supplement of paper PMC10567573
# ± gives the standard deviation.
# Experiment: protein stability index of a GFP-peptide fusion (GPS, HEK-293T) (PSI 1-6); higher = more stable
# [1] = treatment: DMSO, c terminus: a fixed tail appended
# [2] = treatment: MLN4924 1 uM, 8 h, c terminus: a fixed tail appended
# [3] = treatment: DMSO, c terminus: native
# [4] = treatment: MLN4924 1 uM, 8 h, c terminus: native
# 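Further: 24-mer peptide tiles fused after GFP, lentivirally expressed, FACS-sorted into six equal bins by GFP/DsRed ratio, decoded by Illumina sequencing, PSI is the read-weighted mean bin number.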
Sequence,protein stability index [1],protein stability index [2],protein stability index [3],protein stability index [4]
DDALEDFKKVLDLNPGFQDATLSL [TTC32],3.73 ± 0.32,3.85 ± 0.32,,
GAFETVLASAYTGRLSMAAADIVN [ZBTB22],2.88 ± 0.61,2.91 ± 0.59,,
APGLYNHLPWQYHAGQGGLFYSAE [CCDC3],2.69 ± 0.084,3.25 ± 1.1,,
PKPAGGAIPTKKSLPSPSSSGHQN [FBF1],4.98 ± 0.14,4.92 ± 0.17,,
SFSVLNWDQVSRLHEVLTEVVPIH [TENT5C],2.26 ± 0.28,2.3 ± 0.27,,
AYEIMQTLHPDASANFHSLDDIYY [FUT8],2.85 ± 0.25,2.93 ± 0.37,,
EVANKDLTERKYKGDSTIRELKAK [SASS6],3.27 ± 0.39,3.27 ± 0.53,,
SLLGDDVFSTMAGLEEADAEVSVI [FBF1],3.56 ± 0.26,3.5 ± 0.22,,
NGRKIMGKEVKVNWATTPSSQKKD [TIA1],4.43 ± 0.077,4.55 ± 0.22,,
HIFAHRIYLATSSSKFYDLFLMEC [RHOBTB1],3.07 ± 0.6,2.38 ± 0.49,,
SGGGSTSAAGIEARSRALRRRWCP [SPACA3],3.95 ± 0.12,4 ± 0.13,,
TPETRAKFTQDNLCRAQRERLASA [TEKT4],4.17 ± 0.23,4.35 ± 0.35,,
QAEFTAMRDQYMRAGEGFIICYSI [RIT1],3.38 ± 0.48,3.04 ± 0.8,,
TSETSHSPLYADPYTPPATSHRRV [PLEKHN1],4.39 ± 0.12,4.34 ± 0.08,,
KKRRLPPVHIHPAFARQAAQEPSA [FOXJ1],3.87 ± 0.25,3.82 ± 0.36,,
NYSSSQDALISVSYTIITPLFNPM [OR10K2],3.07 ± 0.46,2.92 ± 0.33,,
VVCGMFGFPGERTYNTKVYKMFAS [LOXL2],2.66 ± 1.1,2.63 ± 0.2,,
EESASRQRFGEALQDQEKAWGFPE [ELOA2],5 ± 0.16,5 ± 0.31,,
QDLDSRLRAGSSEFDSEHNLTSNE [RASAL3],5.52 ± 0.29,5.42 ± 0.19,,
VQTWTQPRLCYLVKEGGSYGFSLK [PDZK1],2.13 ± 0.24,2 ± 0.33,,
TDAGKAFCMFYAVLGIPLTLVMFQ [KCNK9],3.35 ± 0.4,3.06 ± 0.31,,
SFARDLPDFPSINMDPAGLDDEDD [RETREG3],5.41 ± 0.32,5.49 ± 0.098,,
LRPTSVDPALRRRRRGPRNKKRGW [NOP53],4.64 ± 0.56,4.29 ± 0.23,,

Sequence,protein stability index [1],protein stability index [2],protein stability index [3],protein stability index [4]
TPLQSRTSIVQAAAGGVPGGGSNN [PDLIM7],4.71 ± 0.2,5.03 ± 0.24,,
KKHYRLQFYMFGWTHVTLLIVVTQ [CDS2],2.89 ± 0.55,2.58 ± 0.71,,
AREGLAAPPRRLRSRKVSCPLTRS [FCHO1],3.93 ± 0.12,4.13 ± 0.35,,
DYVQLENQWETPPEDLQTDLAKLV [ZNF449],4.19 ± 0.3,4.31 ± 0.059,,
LSQSPEPGRRGDPDTAPPSERPLE [RTN2],5.56 ± 0.24,5.56 ± 0.15,,
GKNNEFSRLVAGEYLSFFDFSGLT [PSD2],2.13 ± 0.41,2.13 ± 0.32,,
GGSSGKGTTLRGRSDADLVVFLSP [OAS1],2.73 ± 0.17,3.07 ± 0.35,,
LSSSIIHEIDSILGNKPYSKKDYR [KCNAB2],2.65 ± 0.26,3.24 ± 0.45,,
ATFHVGGGPAQNAPHQQPPAPPSD [TFE3],4.86 ± 0.16,4.84 ± 0.26,,
AEGHKASFCLEDTECEGDIQKNYE [LOXL2],5.47 ± 0.4,5.33 ± 0.33,,
GPASRMDPESERALQAPHSPSKTD [PBXIP1],5.46 ± 0.24,5.34 ± 0.23,,
LSPEVLRKEAYGKPVDIWACGVIL [CAMK2B],2.62 ± 0.71,2.51 ± 0.4,,
EEPSKYGVVVCEADTGRIHRFVEK [GMPPB],3.94 ± 0.32,3.99 ± 0.18,,
LVTTHHLMVHGNERFIQYLASRNT [SNAP91],2.18 ± 0.17,2.07 ± 0.42,,
RASALCDRHTKFFEEPEDPSNRSF [PPP2R2B],4.38 ± 0.19,4.49 ± 0.25,,
HLDHYYQEELPALLKALVSELSEH [FCHSD1],2.3 ± 0.079,2.15 ± 0.37,,
STMSLNIITVTLNMEKYNFLGISI [DVL3],3.3 ± 0.42,2.89 ± 0.33,,
PESVERLTGVSISQVNHKPLRTA [FLOT1],,,2.66 ± 0.69,3.11 ± 0.18
ENYDIIKTYHYLYLAMLERFQDGD [FEM1B],2.37 ± 0.56,2.52 ± 0.54,,
GQTTGHPYYLRSFLVVLKTVLENE [FAN1],2.46 ± 0.5,2.21 ± 0.04,,
VASGYHYGVASCEACKAFFKRTIQ [ESRRA],2.29 ± 0.27,2.47 ± 0.48,,
RGRPRKLSKEYWDCLEGKKSKHAP [ELF3],4.18 ± 0.27,4.19 ± 0.47,,
NPFFAKTLQHWPHIIRIGDLKPTG [DENND6A],2.21 ± 0.34,2.07 ± 0.23,,

Sequence,protein stability index [1],protein stability index [2],protein stability index [3],protein stability index [4]
LPLTARWEYMHSPSENSKEAEILE [CPOX],4.94 ± 0.32,5.02 ± 0.17,,
DAVFMKDGFFYFFHGTRQYKFDPK [MMP1],2.25 ± 0.33,2.1 ± 0.13,,
HGDYFRLLLPGIYTVSATAPGYDP [CPN1],2.78 ± 0.71,2.48 ± 0.48,,
AACFDGRLDIVKYLVENNANISIA [FEM1B],2.38 ± 0.38,2.21 ± 0.38,,
NGKTIEMDTQFTIRARELQNIYKC [IQUB],2.57 ± 1.1,2.8 ± 0.19,,
LSAANVCLDPIIYFFLCQPFREIL [P2RY14],3.28 ± 0.74,2.58 ± 0.77,,
ISCPTCRRETVLFTDYGLAALAVN [RNF208],2.15 ± 0.13,2.22 ± 0.28,,
PRALIFSTDDFFFREDGAYEFNPD [N4BP2L1],2.95 ± 0.41,3.66 ± 0.48,,
LLKIHEVSTVSHADADCFVCVFLS [CASP6],2.4 ± 0.17,2.4 ± 0.41,,
NSAIRFLRKYSFDGLDLDWEYPGS [CHIT1],2.38 ± 0.28,2.36 ± 0.32,,
SLPSPSSSGHQNRRFSSEDLEDPL [FBF1],5.45 ± 0.3,5.46 ± 0.29,,
EQLEAEAQALRQELERQRRLLGSV [PBXIP1],4.04 ± 0.22,4.02 ± 0.21,,
ITLFLLGAAKGKEVCYEDLGCFSD [PNLIPRP1],2.74 ± 0.43,3.24 ± 0.43,,
LSKQAKFAYKDEYEKFKLYLTIIL [TMEM120A],2.61 ± 0.36,2.48 ± 0.54,,
QTTYLEDRPMFMLQCAMEENCLSA [LOXL2],2.38 ± 0.59,2.33 ± 0.43,,
PIDGTTNFVHRFPFVAVSIGFAVN [IMPA1],2.96 ± 0.76,2.39 ± 0.55,,
AKKIKLTAEAEELKPFFMKEVGSH [SOAT1],3.5 ± 0.34,3.59 ± 0.38,,
TTVPDGPTQLRALNLTEGFAVLHW [TNXB],2.18 ± 0.098,2.05 ± 0.065,,
HSYMGMRGFCAFLGSWLVPFAYLT [POMT2],2.96 ± 0.86,3.04 ± 0.62,,
SQVCRVAYEIMQTLHPDASANFHS [FUT8],2.34 ± 0.36,2.27 ± 0.42,,
YESTLFEDQVPALEAPEDIGSTSE [MIA2],5.55 ± 0.23,5.51 ± 0.33,,
TIGFGDYVALQTKGALQKKPLYVA [KCNK9],2.29 ± 0.19,2.63 ± 0.28,,
SLLRGFLLQNEFVGFMWRQRGRVI [MCOLN1],2.29 ± 0.2,2.13 ± 0.2,,

Sequence,protein stability index [1],protein stability index [2],protein stability index [3],protein stability index [4]
SVVLRRARGGAVSARYVLPDEAAR [DUSP5],3.56 ± 0.33,3.55 ± 0.26,,
HTGERPYECTVCKKRFTRRSHLIG [ZNF449],2.67 ± 0.36,3.17 ± 0.88,,
LNVRGGKPDDITVLLSIVAEYTD [PPTC7],,,3.45 ± 0.95,2.5 ± 0.44
DRDAEDQNRYLDGMVRAHGVRVSV [BET1L],3.85 ± 0.22,3.87 ± 0.29,,
MTPDIHELVENIKSVLKSDEEHME [FAM189A2],4.72 ± 0.24,4.39 ± 0.66,,
HRSACSSAAVRGHPRALPPDARPH [HAGHL],3.81 ± 0.19,3.77 ± 0.17,,
AGKQRMKEKEQENERKVAQLAEEN [DDIT3],5.29 ± 0.41,5.49 ± 0.43,,
MAESWLRLSGAGPAEEAGPEGGLE [FOXJ1],4.67 ± 0.17,5.01 ± 0.22,,
QETAKEEDGSVELESQVQKDGVAD [C18orf25],5.55 ± 0.24,5.61 ± 0.34,,
KAAEGGLSSPEFSELCIWLGSQIK [FAM98B],2.08 ± 0.12,2.03 ± 0.4,,
SSKLVTKKAPQPAKPRLAERMTTR [HDAC6],4.32 ± 0.14,4.47 ± 0.38,,
RDRLRSRLEALSTERDEIEDVKCQ [TRIM15],5.32 ± 0.15,5.44 ± 0.35,,
ADLELSLPECLEYEEEFDYETESE [GNAS],5.41 ± 0.24,5.47 ± 0.16,,
DGPCHKRRASICCTQLGSLSALKH [SCARA5],3.79 ± 0.11,3.65 ± 0.076,,
LYPSAPILGGSGPVRKLYDDCSST [ESRRG],3.82 ± 0.3,3.72 ± 0.24,,
LKSSILIAMAVYTYLRLIVDHHGT [INTS3],3.51 ± 0.21,3.11 ± 0.27,,
SNKKRPSLDGRDPGNGTHGLSPEE [ELOA2],5.36 ± 0.27,5.33 ± 0.23,,
LDAHYHVKISDFGLAKCNGLSHSH [RIPK4],2.25 ± 0.31,2.48 ± 0.15,,
FEFSVDSFQIVLDPMLDFYSDKNA [TENT5D],2.91 ± 0.93,2.52 ± 0.42,,
QAQIDQYLGLVRTHINAVVAKIQA [RTN1],2.08 ± 0.35,2.35 ± 0.28,,
